Data as given in patent US10465177B2, “Maltooligosyl trehalose trehalohydrolase (MTHase) mutant and application thereof” (Jiangnan University, priority 2018, dated 2019).
Changes are numbered by the printed parent chain. Names may count otherwise.

B1: maltooligosyl trehalose trehalohydrolase (MTHase) derived from Sulfolobus acidocaldarius, wild type (WT), SEQ ID NO.2 (Sulfolobus acidocaldarius) (protein)
chain: MFSFGGNIEKNKGIFKLWAPYVNSVKLKLSKKLIPMEKNDEGFFEVEIDDIEENLTYSYIIEDKREIPDPASRYQPLGVHDKSQLIRTDYQILDLGKVKIEDLIIYELHVGTFSQEGNFKGVIEKLDYLKDLGITGIELMPVAQFPGNRDWGYDGVFLYAVQNTYGGPWELAKLVNEAHKRGIAVILDVVYNHIGPEGNYLLGLGPYFSDRYKTPWGLTFNFDDRGCDQVRKFILENVEYWFKTFKIDGLRLDAVHAIFDNSPKHILQEIAEKAHQLGKFVIAESDLNDPKIVKDDCGYKIDAQWVDDFHHAVHAFITKEKDYYYQDFGRIEDIEKTFKDVFVYDGKYSRYRGRTHGAPVGDLPPRKFVVFIQNHDQVGNRGNGERLSILTDKTTYLMAATLYILSPYIPLIFMGEEYYETNPFFFFSDFSDPVLIKGVREGRLKENNQMIDPQSEEAFLKSKLSWKIDEEVLDYYKQLINIRKRYNNCKRVKEVRREGNCITLIMEKIGIIASFDDIVINSKITGNLLIGIGFPKKLKKDELIKVNRGVGVYQLE
B2: maltooligosyl trehalose trehalohydrolase (MTHase) derived from Sulfolobus acidocaldarius (parent SEQ ID NO.2), mutant M140L/L202P/L218D/Y323G/F338S/I404T … (protein)
chain: B1 chain with M140L, L202P, L218D, Y323G, F338S, I404T
notes: sextuple site-directed mutant of the 556-aa parent

Columns and labels:
[1] = substrate: OC[C@H]1O[C@H](O[C@H]2[C@H](O)[C@@H](O)[C@@H](O[C@H]3[C@H](O)[C@@H](O)[C@@H](O[C@H]4[C@H](O)[C@@H](O)[C@@H](O[C@H]5[C@H](O)[C@@H](O)[C@@H](O[C@H]6[C@H](O)[C@@H](O)C(O)O[C@@H]6CO)O[C@@H]5CO)O[C@@H]4CO)O[C@@H]3CO)O[C@@H]2CO)[C@H](O)[C@@H](O)[C@@H]1O; experiment: purified protein, by the assay type; settings: other: wild type enzyme, maltohexose substrate, 60° C.
[2] = substrate: OC[C@H]1O[C@H](O[C@H]2[C@H](O)[C@@H](O)[C@@H](O[C@H]3[C@H](O)[C@@H](O)[C@@H](O[C@H]4[C@H](O)[C@@H](O)[C@@H](O[C@H]5[C@H](O)[C@@H](O)[C@@H](O[C@H]6[C@H](O)[C@@H](O)C(O)O[C@@H]6CO)O[C@@H]5CO)O[C@@H]4CO)O[C@@H]3CO)O[C@@H]2CO)[C@H](O)[C@@H](O)[C@@H]1O; experiment: purified protein, by the assay type; format: biochemical, Sulfolobus acidocaldarius; settings: other: mutant M140L/L202P/L218D/Y323G/F338S/I404T, maltohexose substrate, 60° C.

| Protein | Km [1] | Km [2] |
| --- | --- | --- |
| B1 | 3.89 ± 0.34 mM |  |
| B2 |  | 3.4 ± 0.94 mM |
